From article PMC10570377, “DARPins detect the formation of hetero-tetramers of p63 and p73 in epithelial tissues and in squamous cell carcinoma” (Cell Death & Disease, 2023)
Positions count from the first letter of the chain named. Numbers in names are those of the source.

B1: p73 oligomerization domain (OD), homo-tetramer (domain or fragment)
chain: DEDTYYLQVRGRENFEILMKLKESLELMELVPQPLVDSYRQQQQLLQR
notes: p73 oligomerization domain (OD), wild type; 15N-labelled on lysine for NMR; also called p73 OD; p73 homo-OD; source: E. coli, purified; not shown: His10, N-terminal, cleaved
B2: p73 oligomerization domain E363K (domain or fragment, UniProt O15350 351-398, looked up)
chain: B1 chain with E13K
notes: p73 oligomerization domain (OD), amino acids 351-398, E363K; The p73 chain of m3; also called p73 (amino acids 351–398, E363K); p73 OD E363K; source: E. coli BL21(DE3) Rosetta, purified; not shown: His10, N-terminal, cleaved
B3: p63 oligomerization domain (OD), homo-tetramer (domain or fragment)
chain: DDELLYLPVRGRETYEMLLKIKESLELMQYLPQHTIETYRQQQQQQHQHLLQKQTSIQS
notes: p63 oligomerization domain (OD), wild type; also called p63 OD; p63 homo-OD; source: E. coli, purified; not shown: His10, N-terminal, cleaved

What was measured:
[1] = biological target: B3; assay: NMR titration; [15N,1H] BEST-TROSY spectra at 25 °C; equimolar mixture of unlabelled p63 OD and 15N-Lys-labelled p73 OD, DARPin added at one ratio (2.4:1); 20 mM K2HPO4 pH 7.8, 100 mM KCl, 0.5 mM EDTA; conditions: both partners purified
[2] = biological target: the molecule itself; assay: crystal structure; complexes of OD hetero-tetramer and DARPin mixed 1:2, isolated by SEC, sitting drop at 20 °C

B1
binding result [1]: binds | binding result [2]: binds

B2
binding result [2]: binds

B3
binding result [2]: binds
